From article PMC8199036, “Improved Tumor-Targeting with Peptidomimetic Analogs of Minigastrin ^177Lu-PP-F11N” (Cancers, 2021)
Read-outs that look alike come from different tables or passages of the source. Starred links: 1 amine or outer side, 2 acyl side, 3 side chain; linkers in the order of their positions; H or OH if unused. Non-standard residues stand in square brackets, D forms with d. Residues, ends and D or L forms follow the SMILES beside them. *: point of attachment. DOTA = O=C(O)CN1CCN(CC(=O)O)CCN(CC(=O)*)CCN(CC(=O)O)CC1; X1 = C[C@@H](C(=O)[*:2])n1cc([C@@H](CCC(=O)O)N[*:1])nn1; X2 = O=C(Cn1cc([C@H](Cc2ccc(O)cc2)N[*:1])nn1)[*:2]; Nle = CCCC[C@H](N)C(=O)O

Legend:
[1] = system: A431-CCK2R cells xenografts; test: SPECT/CT imaging of mice with tumor xenografts; type: in vivo, female CD1-nu mice; conditions: 24 h p.i.
Description: 10–14 days prior to the experiment, 6-week-old female CD1-nu mice were inoculated with 5 × 10^6 A431-CCK2R cells (0.1 mL, 5 × 10^7 cells/mL in PBS) subcutaneously in both shoulders. The mice were randomly assigned to groups of two animals. On the day of the experiment, ^177Lu-labeled conjugates (200 pmol, 100 µL, 2 µM in PBS, 20 MBq, 20 µg/kg) were injected via the tail vein. The mice were kept with food and water ad libitum. SPECT scans of 40 min (1 and 4 h p.i., frame duration 60 sec) or 60 min (24 h p.i., frame duration 80 sec) were acquired after an initial CT scan of 7.5 min (CT tube voltage 55 kV, CT tube current 145 µA) with a multi-pinhole NanoSPECT/CTplus (Bioscan Inc., […], and Mediso, Hungary). For the duration of the SPECT/CT scans, mice were kept under anesthesia with a mixture of isoflurane (1.5–2.5%) and oxygen and warmed by a constant air flow of 37 °C. The images were reconstructed with HiSPECT and analyzed in VivoQuant. A post-reconstruction filter was applied (Gauss, full width at half max, 1 mm) to the SPECT images, and the scale was adjusted to visualize important organs and tissues (0.001–0.004 kBq/voxel). n = 2 animals per group.

[2] = system: xenografts of A431-CCK2R cells; test: biodistribution in mice with CCK2R-positive xenografts; type: in vivo, female CD1-nu mice
Description: (§1) Procedures for biodistribution studies with ^177Lu-labeled conjugates (10 pmol, 100 µL, 0.1 µM in PBS, 0.5 MBq, 1 µg/kg) in female CD1-nu mice with xenografts of A431-CCK2R cells at 1, 4, and 24 h p.i., as well as blocking experiments at 4 h p.i. with a 6000-fold excess of minigastrin have been reported previously and were followed without modifications. Statistical analysis was performed via GraphPad Prism using two-sided analysis of variance. n = 4 animals per group.

[3] = as above; type: in vivo, female CD1-nu mice; conditions: female, CD1-nu, mouse, total radioactivity; for tissue uptake at 1 h / tissue uptake at 4 h / tissue uptake at 24 h: in vivo
Description: as §1

[4] = logD pH 7.4 determination; type: physicochemical; conditions: 177Lu-labeled
From the text: (§2) Procedures for (radio)metal labeling of the DOTA–minigastrin conjugates with ^177Lu^3+ and ^natLu^3+, cell culturing of A431-CCK2R cells, cell internalization (including blocking experiments with excess minigastrin (H-LE5AYGWMDF-NH2)), competition binding assays (IC50), stability measurements in human blood plasma, and determinations of logDpH 7.4 have been reported previously for the in vitro evaluation of TZMGs and were applied to NMGs without alteration.

[5] = system: A431-CCK2R cells; test: cell binding and internalization; type: cell-based; conditions: for internalized blocked / membrane-bound blocked: 6000-fold excess of minigastrin; for internalized specific / membrane-bound specific: total minus blocked
From the text: as §2
Figure 2 (A) Total internalization of ^177Lu-labeled conjugates (2 nM, 5 kBq) in […] cells over 4 h (n = 3–4 in triplicate). […] Data points show mean value ± standard deviation.
Cell Internalization Data
Cell internalization was determined and analyzed as described in Grob, et al., J Med Chem, 2020.1 Specific values result from values of total internalization or cell binding minus values obtained in presence of a 6000-fold excess of minigas- […]
Incubation time membrane-bound internalized total blocked specific total blocked specific
Table S3: Complete Internalization Data for 177Lu-labeled NMG 1 as mean ± standard deviation from n = 3–4 in triplicates.
Table S4: Complete Internalization Data for 177Lu-labeled NMG 2 as mean ± standard deviation from n = 3–4 in triplicates.
Table S5: Complete Internalization Data for 177Lu-labeled NMG 3 as mean ± standard deviation from n = 3–4 in triplicates.

[6] = 10 pmol, Stomach (CCK2R-positive) uptake
[7] = 10 pmol, Tumor (CCK2R-positive) uptake
[8] = tumor / blood, 10 pmol, read-out: Tumor-to-Blood ratio
[9] = tumor / kidneys, 10 pmol, read-out: Tumor-to-Kidneys ratio
[10] = tumor / muscle, 10 pmol, read-out: Tumor-to-Muscle ratio
[11] = tumor / stomach, 10 pmol, read-out: Tumor-to-Stomach ratio

CCCC[C@H](NC(=O)[C@H](Cc1c[nH]c2ccccc12)NC(=O)Cn1cc([C@H](Cc2ccc(O)cc2)NC(=O)[C@H](C)n2cc([C@@H](CCC(=O)O)NC(=O)[C@@H](CCC(=O)O)NC(=O)[C@@H](CCC(=O)O)NC(=O)[C@@H](CCC(=O)O)NC(=O)[C@@H](CCC(=O)O)NC(=O)[C@@H](CCC(=O)O)NC(=O)CN3CCN(CC(=O)O)CCN(CC(=O)O)CCN(CC(=O)O)CC3)nn2)nn1)C(=O)N[C@@H](CC(=O)O)C(=O)N[C@@H](Cc1ccccc1)C(N)=O [NMG 3, DOTA-(DGlu)6 -Ψ[Tz]-Ala-Tyr-Ψ[Tz]-Gly-Trp-Nle-Asp-Phe-NH2] ({DOTA}-[dE][dE][dE][dE][dE][X1][X2]W[Nle]DF-NH2)
visualization of tumor xenografts by SPECT/CT [1]: clearly visualized | Tumor washout: tumor uptake relative to 1h ([2]; 4 h): 73% | Tumor washout: tumor uptake relative to 1h ([2]; 24 h): 56% | Blood uptake ([2]; female, CD1-nu, mouse, in vivo, 10 pmol, 1 h): < 0.5 % i.A./g | tissue uptake at 1 h ([3]; 10 pmol, Blood uptake): 0.51 %ID/g | tissue uptake at 4 h ([3]; 10 pmol, Blood uptake): 0.02 %ID/g | tissue uptake at 24 h ([3]; 10 pmol, Blood uptake): < 0.01 %ID/g | tissue uptake at 1 h ([3]; 10 pmol, Bone uptake): 0.45 %ID/g | tissue uptake at 24 h ([3]; 10 pmol, Bone uptake): 0.07 %ID/g | tissue uptake at 1 h ([3]; 10 pmol, Heart uptake): 0.19 %ID/g | tissue uptake at 4 h ([3]; 10 pmol, Heart uptake): 0.03 %ID/g | tissue uptake at 24 h ([3]; 10 pmol, Heart uptake): 0.01 %ID/g | tissue uptake at 1 h ([3]; 10 pmol, Intestines uptake): 0.25 %ID/g | tissue uptake at 4 h ([3]; 10 pmol, Intestines uptake): 0.1 %ID/g | tissue uptake at 24 h ([3]; 10 pmol, Intestines uptake): 0.02 %ID/g | tissue uptake at 1 h ([3]; 10 pmol, Kidneys uptake): 2.01 %ID/g | tissue uptake at 4 h ([3]; 10 pmol, Kidneys uptake): 1.74 %ID/g | tissue uptake at 24 h ([3]; 10 pmol, Kidneys uptake): 1.09 %ID/g | tissue uptake at 1 h ([3]; 10 pmol, Liver uptake): 0.16 %ID/g | tissue uptake at 4 h ([3]; 10 pmol, Liver uptake): 0.07 %ID/g | tissue uptake at 24 h ([3]; 10 pmol, Liver uptake): 0.04 %ID/g | tissue uptake at 1 h ([3]; 10 pmol, Lung uptake): 0.33 %ID/g | tissue uptake at 4 h ([3]; 10 pmol, Lung uptake): 0.07 %ID/g | tissue uptake at 24 h ([3]; 10 pmol, Lung uptake): 0.03 %ID/g | tissue uptake at 1 h ([3]; 10 pmol, Muscle uptake): 0.13 %ID/g | tissue uptake at 24 h ([3]; 10 pmol, Muscle uptake): 0.01 %ID/g | tissue uptake at 1 h ([3]; 10 pmol, Pancreas uptake): 0.49 %ID/g | tissue uptake at 4 h ([3]; 10 pmol, Pancreas uptake): 0.24 %ID/g | tissue uptake at 24 h ([3]; 10 pmol, Pancreas uptake): 0.17 %ID/g | tissue uptake at 1 h ([3]; 10 pmol, Spleen uptake): 0.13 %ID/g | tissue uptake at 4 h ([3]; 10 pmol, Spleen uptake): 0.05 %ID/g | tissue uptake at 1 h [3, 6]: 3.76 %ID/g | tissue uptake at 4 h [3, 6]: 3.11 %ID/g | tissue uptake at 24 h [3, 6]: 1.51 %ID/g | tissue uptake at 1 h [3, 7]: 9.43 %ID/g | tissue uptake at 4 h [3, 7]: 6.9 %ID/g | tissue uptake at 24 h [3, 7]: 5.24 %ID/g | tissue uptake at 4 h ([3]; Blood uptake): 0.03 %ID/g | tissue uptake at 4 h ([3]; Heart uptake): 0.05 %ID/g | tissue uptake at 4 h ([3]; Intestines uptake): 0.07 %ID/g | tissue uptake at 4 h ([3]; Kidneys uptake): 1.88 %ID/g | tissue uptake at 4 h ([3]; Liver uptake): 0.09 %ID/g | tissue uptake at 4 h ([3]; Lung uptake): 0.09 %ID/g | tissue uptake at 4 h ([3]; Pancreas uptake): 0.19 %ID/g | tissue uptake at 4 h ([3]; Spleen uptake): 0.06 %ID/g | tissue uptake at 4 h ([3]; Stomach (CCK2R-positive) uptake): 0.65 %ID/g | tissue uptake at 4 h ([3]; Tumor (CCK2R-positive) uptake): 3.43 %ID/g | tissue to tissue ratio at 1 h [3, 8]: 19.5 ± 7.58 | tissue to tissue ratio at 4 h [3, 8]: 345 ± 34.6 | tissue to tissue ratio at 24 h [3, 8]: 4370 ± 541 | tissue to tissue ratio at 1 h [3, 9]: 4.7 ± 1.2 | tissue to tissue ratio at 4 h [3, 9]: 3.99 ± 0.43 | tissue to tissue ratio at 24 h [3, 9]: 3.65 ± 0.99 | tissue to tissue ratio at 1 h [3, 10]: 79 ± 15.7 | tissue to tissue ratio at 4 h [3, 10]: 505 ± 158 | tissue to tissue ratio at 24 h [3, 10]: 437 ± 54.1 | tissue to tissue ratio at 1 h [3, 11]: 2.66 ± 1.08 | tissue to tissue ratio at 4 h [3, 11]: 2.22 ± 0.2 | tissue to tissue ratio at 24 h [3, 11]: 3.06 ± 1.44 | logDpH 7.4 [4]: -3.95 ± 0.42 | internalized total ([5]; 0.5 h): 33.9 ± 1.1% | membrane-bound total ([5]; 0.5 h): 7.7 ± 0.8% | internalized blocked ([5]; 0.5 h): 0.4 ± 0.3% | membrane-bound blocked ([5]; 0.5 h): 0.9 ± 0.3% | internalized specific ([5]; 0.5 h): 33.5 ± 1.1% | membrane-bound specific ([5]; 0.5 h): 6.8 ± 1.0% | internalized total ([5]; 1 h): 57.2 ± 2.3% | membrane-bound total ([5]; 1 h): 6.4 ± 0.3% | internalized blocked ([5]; 1 h): 0.7 ± 0.3% | membrane-bound blocked ([5]; 1 h): 0.9 ± 0.3% | internalized specific ([5]; 1 h): 56.5 ± 2.1% | membrane-bound specific ([5]; 1 h): 5.5 ± 0.4% | internalized total ([5]; 2 h): 73.4 ± 1.3% | membrane-bound total ([5]; 2 h): 4.0 ± 0.6% | internalized blocked ([5]; 2 h): 5.5 ± 3.9% | membrane-bound blocked ([5]; 2 h): 1.8 ± 1.3% | internalized specific ([5]; 2 h): 67.9 ± 3.4% | membrane-bound specific ([5]; 2 h): 2.2 ± 1.3% | membrane-bound total ([5]; 4 h): 3.2 ± 0.3% | internalized blocked ([5]; 4 h): 18.4 ± 4.3% | membrane-bound blocked ([5]; 4 h): 2.4 ± 0.6% | internalized specific ([5]; 4 h): 57.7 ± 4.2% | membrane-bound specific ([5]; 4 h): 0.8 ± 0.6% | cell-associated radioactivity ([5]; after 4 h of incubation): ~80%
